Experimental data from US20260285942 (published 2026).
Substitutions are numbered along the chain they refer to. Blank lines part the entries; values can stand above or below the binder they belong to.

Columns and labels:
[1] = target: human TfR ECD (human); experiment: SPR
[2] = target: T1, cynomolgus monkey TfR ECD (Macaca fascicularis); experiment: SPR
T1 chain: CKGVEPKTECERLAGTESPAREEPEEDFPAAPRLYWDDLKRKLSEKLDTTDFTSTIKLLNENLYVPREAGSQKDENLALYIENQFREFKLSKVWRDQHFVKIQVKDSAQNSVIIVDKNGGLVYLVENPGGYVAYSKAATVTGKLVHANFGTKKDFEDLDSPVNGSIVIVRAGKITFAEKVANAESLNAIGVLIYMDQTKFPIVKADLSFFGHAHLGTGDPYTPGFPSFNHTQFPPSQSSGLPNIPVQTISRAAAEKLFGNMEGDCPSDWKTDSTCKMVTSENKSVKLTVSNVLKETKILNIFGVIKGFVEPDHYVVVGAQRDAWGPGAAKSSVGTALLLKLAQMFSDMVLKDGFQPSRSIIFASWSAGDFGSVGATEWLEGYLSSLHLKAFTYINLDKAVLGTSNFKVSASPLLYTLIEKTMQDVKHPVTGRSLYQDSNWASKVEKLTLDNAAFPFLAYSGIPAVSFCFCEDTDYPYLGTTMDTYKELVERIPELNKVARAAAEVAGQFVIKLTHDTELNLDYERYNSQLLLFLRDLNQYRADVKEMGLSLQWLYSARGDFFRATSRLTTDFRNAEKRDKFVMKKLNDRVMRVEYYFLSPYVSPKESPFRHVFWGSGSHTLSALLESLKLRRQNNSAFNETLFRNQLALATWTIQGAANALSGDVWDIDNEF

Kd [1]: 16.5 nM | Kd [2]: 17.6 nM
B1: hTfR affinity peptide 1 (designed binder)
chain: QVQLVESGGGLVHPGGSLRLSCVASGTSFSLNVVTWYRQALGKQREWVATINQSEAPTYADSVKGRFTISRDGAKNTVYLQMNSLVTEDTALYYCYDRYNEIRGQGTQVTVSS

Kd [1]: 16.5 nM | Kd [2]: 17.6 nM
B2: hTfR affinity peptide 2 (designed binder)
chain: B1 chain with R19S, V23A, L31F, V33T, Q53G, E55G, Q81L
